The chains are these.
B1: (His)10-MBP-DotL(656-783)–IcmSW–LvgA (complex)
chain 1: GQNEPEPVEDIVEEEVEGALTIFSKLRIDPNAPPILVADKEVFSEPLLPINETRNQMITIERLAGAKDKYAGTVANELIKDFQIATSYPPEERDVIDVQELTGIIRDLSAKISAEREKANKKAAEELT
chain 2: MERDISKCMAKIAASMNAKFYLNDRFVSFDEVFSETGLLPAIAKRADQLCSLCLGYGLGATYDESEGALLGIRVVFDEVTPNVLRLLCMTDVMNELIQGGPSRDYTPLDELMYD
chain 3: MPDLSHEASAKYWFEYLDPMIYRVITFMESVENWTLDGNPELEEAMKQLGQELDDIEKIDLGLLAEEDKFIRIVGNIKSGRGLRLLQAIDTVHPGSASRVLIHAEETSLSSSDPAGFFLKRNIVFERLRLLSRVFCQYRLKLVLRALEGDE
chain 4: MADGDIEIKAGFVDTDLDDRKLTMIDDLNNPLAIVERVYLIWWHWADFHLHVISPHIDTITPAIVIEPELIPGSNDHEFVYSIHDSGSKLSTSKSQDMFSAGMSMCKLFYTIEKMVYILVERLKSGGVSMEAEVQIAFAGHEIAQRKAFESIINLPYNVVVTNFDPGIWGEKYLQNVKRLADKGYGYPPESPRKIYMHPVSSGTTARK

What all share (assay): BLI
One experiment deals with PieA (Legionella pneumophila).
The target of the next experiment is SidH(1830-2200) (Legionella pneumophila, UniProt Q5ZRQ1 1830-2200).
Experiment [1] deals with B1.

As to B1, the values for the Kd with PieA and in the experiment with SidH(1830-2200) were 230 nM and 570 nM, respectively.

B2: SetA (natural protein)
chain: MYKIYSYLGWRIDMKTENLPQAGQEAQIDKKIHFIWVGHIMPQKNIQVVSEWAEKNPGYETIIWVDKKIAPAKELDLFILDMKSKGITVKDINEEGVCRDSIRHELDQESPNYGMVSDMLRLNILAAEGGIYLDSDILCSAPFPDEIYAPFGFLLSPWSQGANNTLCNDIILCSKGNQIIQQLADAIEQSYIARDSFEFTHEYASMKETKGERIAKTLGVTGPGFLFHQLKKMGILNDKSEMEAIHWELQDQRYLIDGSVKEPDYFYVPQNNTNDASWVPSIKRPGIENMSFQERLENAVQLIAFDIQKTGLFNLDHYANELKVKQNSWCIAAETSPELKPDSYLLIRPRDKTGEWTLYYVDEDKKLNPVTLPVIKGAIKLSEVSDPLRKFHTLLSQVSDPVNPTAHELKQIGRALIELKPRQDEWHCKNKWSGAEEIAQELWQRITSNETLRAQIKQCFTQFESLKPRVAELGLTRASGAGTEVEAHESTVKEQEIISQNTVGEEGTKEKNSVQLASENSSDEKIKTAHDLIDEIIQDVIQLDGKLGLLGGNTRQLEDGRVINIPNGAAMIFDDYKKYKQGELTAESALESMIKIAKLSNQLNRHTFFNQRQPETGQFYKKVAAIDLQTTIAAEYDNNHGLRI
In the case of B2, the Kd (usually the concentration at which binding is half-saturated) in experiment [1] was determined as 920 nM.

The values are drawn from article PMC7251119 (2020).
